Reference: patent US20050031645, “Vaccine compositions” (Advanced Microbial Solutions Corporation, published 2005)

Target: T1, DtxR (Corynebacterium diphtheriae, UniProt H2I233 SEQ:1-226)
T1 sequence: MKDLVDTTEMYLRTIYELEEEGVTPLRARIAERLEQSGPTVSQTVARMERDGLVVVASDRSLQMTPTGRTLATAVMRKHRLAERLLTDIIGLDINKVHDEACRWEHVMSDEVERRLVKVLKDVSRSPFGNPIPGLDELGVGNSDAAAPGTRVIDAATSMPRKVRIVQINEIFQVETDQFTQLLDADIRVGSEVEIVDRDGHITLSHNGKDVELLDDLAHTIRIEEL
Test: EMSA; competed by unlabeled tox DNA, not by nonspecific DNA; 10 mM Tris-OAc pH 7.4, 50 mM KCl, 1 mM EDTA, calf thymus DNA
Conditions: chain copies: 2 (inferred); label: 32P end

B1: toxO (tox operator) 100 bp fragment (dsDNA)
DNA 1: ATAATTAGGATAGCTTTACCTAATTAT
DNA 2: ATAATTAGGTAAAGCTATCCTAATTAT
binding result: binds
